Data on two substances can be found in publication PMC10925414.

Experiment [1] addresses γC3 EC1-EC4 wild type (PcdhγC3 EC1-EC4 ectodomain fragment) (mouse). The experiment is described as follows: AUC; sedimentation equilibrium of single proteins; 1.1, 0.73 and 0.37 mg/mL; 10 mM Tris, 150 mM NaCl, 3 mM CaCl2, pH 8.0, 250 mM imidazole; 25°C; 11000-20000 rpm; interference at 675 nm; global fit in SedPhat; dimer to monomers.
The target in experiment [2] is γC3 protocadherin EC1-EC4 (Mus musculus). As to conditions: cited from earlier work.

In experiment [1], “γC3 EC1-EC4 wild type (PcdhγC3 EC1-EC4 ectodomain fragment) (domain or fragment)” showed a Kd of 115 µM. “γC3 protocadherin EC1-EC4 (from UniProt Q9UN70)”: the Kd in experiment [2] was 115 µM.

What is called Kd is the free concentration of one partner at which half of the binding sites on the other are occupied at equilibrium, for simple one-to-one binding.
